From US20210317213A1 (AMBRX, published 2021)
Changes are numbered by the printed parent chain.

Tests used:
[1] = biological target: T1, human CD3 (human, UniProt P07766 23-207); test: cell binding, human PBMC
T1 construct: whole, on cells; also called CD3 on human T-cells

[2] = biological target: T1, human CD3; test: cell binding, activated human PBMC; E. coli protein
[3] = biological target: T2, cyno CD3 (cyno (cynomolgus monkey), UniProt Q95LI5 22-198); test: cell binding, activated cyno PBMC; E. coli protein
T2 construct: whole, on cells; also called CD3 on Cynomolgus T-cells

[4] = biological target: T1, human CD3; test: cell binding, human CD3 (activated human PBMC); human CD3 (first number of the cell)
Method: (§1) Testing for CD3 binding with activated human and cyno PBMC: To distinguish between the humanized anti-CD3 antibodies generated, binding to human CD3 was tested using activated human PBMCs (n=2). The activation of PBMCs and subsequent fluorescence-based CD3 binding assays were followed as described previously (see for example, Angew Chem Int Ed Engl, 52(46):12101-12104, 2013). […] The binding of the remaining 6 humanized antibodies to both human and cyno CD3 using activated human and cyno PBMCs, respectively, was titrated. […] The six (6) humanized anti-CD3 antibodies were obtained as follows: Fab1, Fab2 and Fab3 wildtype were generated by combination of LC ((vL1.2+CL); (SEQ.ID. NO:7)) and HC ((vH1.2+CH1); (SEQ.ID. NO:1)), ((vH1.1+CH1); (SEQ.ID. NO:2)) and ((vH1.0+CH1); (SEQ.ID. NO:3)) respectively. Fab4, Fab 5 and Fab6 wildtype were generated by combination of LC ((vL1.1+CL); (SEQ.ID. NO:8)) and HC ((vH1.2+CH1); (SEQ.ID. NO:1)), ((vH1.1+CH1); (SEQ.ID. NO:2)) and ((vH1.0+CH1); (SEQ.ID. NO:3)) respectively.
(§2) Binding of Folate-conjugated Fabs to human and cyno CD3: Binding of E. coli produced and Folate-conjugated low-affinity variants of humanized anti-CD3 Fabs was performed as described in the above Examples.

[5] = biological target: T1, human CD3; test: cell binding, human CD3, 50 nM SFA present
[6] = biological target: T2, cyno CD3; test: cell binding, cyno CD3 (activated cyno PBMC); cyno CD3 (second number of the cell)
Method: as §1, §2

[7] = biological target: T1, human CD3; test: cell binding, activated human PBMC
[8] = biological target: T2, cyno CD3; test: cell binding, activated cyno PBMC
[9] = biological target: T1, human CD3; test: cell binding, human T-cells; set-up: Bmax: unit not given here
[10] = biological target: Folate receptor-alpha (FOLR1) (human) (UniProt P15328); test: summary table; cell binding through the folate moiety
[11] = biological target: Folate receptor-alpha (FOLR1) (human) (UniProt P15328); test: cell binding, FOLRα-expressing KB cells; through the folate moiety
[12] = biological target: Folate receptor-alpha (FOLR1) (human) (UniProt P15328); test: cell binding, SKOV-3 cells with 50 nM SFA; through the folate moiety; SKOV-3 cells, with 50 nM SFA; binding through the conjugated folate
[13] = biological target: T2, cyno CD3; test: cell binding, cynomolgus T-cells
[14] = biological target: Folate receptor-alpha (FOLR1) (human) (UniProt P15328); test: summary table; FRα affinity over CD3 affinity
[15] = biological target: T1, human CD3; test: summary table; cell binding EC50, human PBMC
[16] = biological target: Folate receptor beta (human, UniProt P14207 17-230); test: cell-based or functional assay
[17] = biological target: T1, human CD3; test: cell binding, human PBMC, 20 nM SFA present
[18] = biological target: T1, human CD3; test: cell binding, human T-cells; assigned to the Bi5KPEG-BiFolate / BiFolate pair from Table 37
[19] = biological target: Folate receptor-alpha (FOLR1) (human) (UniProt P15328); test: cell binding, SKOV-3 cells with 50 nM SFA; through the folate moiety
[20] = biological target: T2, cyno CD3; test: flow cytometry (MFI) titration on cyno CD3 (activated cyno PBMC), HEK293 culture supernatant
Method: (§3) Screening for human and cyno CD3 binding: HEK293 culture supernatants were directly used to test for binding to human CD3 in the screening phase. In Round 1 experiment, initially 35 clones were tested for binding to human CD3 at three different protein concentrations, and 13 were selected for detailed binding assays to both human and cyno CD3. An 11-point binding titration curve was generated to both human (FIG. 4A) and cyno CD3 (FIG. 4B) for each clone. […] Similarly, 43 clones were screened in Round 2 experiment. After two-stage screening as described above for Round 1, 11 low-affinity variants were obtained, of which 4 are represented as shown in FIGS. 5A-5B

[21] = biological target: T1, human CD3; test: flow cytometry (MFI) titration on human CD3 (activated human PBMC), HEK293 culture supernatant
Method: as §3

[22] = biological target: T1, human CD3; test: cell binding, activated human PBMC; remark: listed apart in the source
[23] = biological target: T2, cyno CD3; test: flow cytometry (MFI), 11-point titration on cyno CD3 (activated cyno PBMC), HEK293 culture supernatant
Method: as §3

[24] = biological target: T1, human CD3; test: flow cytometry (MFI), 11-point titration on human CD3 (activated human PBMC), HEK293 culture supernatant
Method: as §3

[25] = biological target: T1, human CD3; test: flow cytometry (MFI) on activated human PBMC, Fab in HEK293 culture medium, concentration not shown
Method: as §1

Folate receptor-alpha (FOLR1) (human), sequence (P15328 25-234): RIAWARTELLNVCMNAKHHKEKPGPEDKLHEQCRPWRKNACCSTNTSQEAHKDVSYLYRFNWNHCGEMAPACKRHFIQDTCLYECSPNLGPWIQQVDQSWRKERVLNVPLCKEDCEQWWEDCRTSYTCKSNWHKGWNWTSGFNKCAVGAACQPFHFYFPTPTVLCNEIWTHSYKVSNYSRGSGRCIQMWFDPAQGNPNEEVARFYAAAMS
T1 sequence (P07766 23-207): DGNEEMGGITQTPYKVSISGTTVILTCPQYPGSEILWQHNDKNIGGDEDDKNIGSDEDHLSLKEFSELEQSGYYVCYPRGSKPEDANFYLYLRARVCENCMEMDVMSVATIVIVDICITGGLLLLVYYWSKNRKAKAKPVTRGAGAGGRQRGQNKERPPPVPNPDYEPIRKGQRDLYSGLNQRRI
T2 sequence (Q95LI5 22-198): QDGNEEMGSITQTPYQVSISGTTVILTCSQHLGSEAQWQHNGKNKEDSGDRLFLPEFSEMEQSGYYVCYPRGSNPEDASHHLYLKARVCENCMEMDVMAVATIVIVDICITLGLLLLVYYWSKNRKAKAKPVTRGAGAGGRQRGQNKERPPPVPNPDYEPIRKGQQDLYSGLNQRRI
Folate receptor beta, sequence (P14207 17-230): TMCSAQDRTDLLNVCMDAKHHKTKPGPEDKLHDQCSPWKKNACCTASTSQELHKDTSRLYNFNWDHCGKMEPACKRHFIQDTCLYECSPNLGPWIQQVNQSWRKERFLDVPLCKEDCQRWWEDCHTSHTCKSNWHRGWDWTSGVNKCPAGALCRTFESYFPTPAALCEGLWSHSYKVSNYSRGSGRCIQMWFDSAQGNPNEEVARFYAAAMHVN

B1: Fab1-HK129-Folate (Fab, V domains shown)
VH: EVQLVESGGGLVQPGGSLRLSCAASGFTFNTYAMNWVRQAPGKGLEWVARIRSKYNNYATYYADSVKDRFTISRDDSKNILYLQMNSLKTEDTAVYYCVRHGNFGNSYVSWFAYWGQGTLVTVSS
VL: QAVVTQEPSLTVSPGGTVTLTCRSSTGAVTTSNYANWVQQKPGQAPRGLIGGTNKRAPGTPARFSGSLLGGKAALTLSGAQPEDEAEYYCALWYSNLWVFGGGTKLTVLG
modifications: pAF at HK129 (Kabat) conjugated to folate (oxime)
notes: From E. coli; also called Folate lead; parent control
- EC50 [1]: 2.45 nM
- EC50 [2]: 1.69 nM
- EC50 [3]: 2.05 nM
- EC50 [4]: 2.31 nM
- EC50 [5]: 2 nM
- EC50 [6]: 3.3 nM
- EC50 [7]: 2.78 nM
- EC50 [8]: 1.41 nM
- Bmax [9]: 30100
- Kd [9]: 1.53 nM
- FRα binding affinity [10]: 59.6 nM
- Bmax [11]: 101000
- Kd [11]: 1.97 nM
- EC50 [12]: 44.5 nM
- Bmax [13]: 25700
- Kd [13]: 2.69 nM
- Affinity ratio (FRα:CD3) [14]: 35
- CD3 binding affinity [15]: 1.69 nM

B2: Fab1-HK129-LL157-Folate (Fab, V domains shown)
VH: B1 VH
VL: B1 VL
modifications: pAF at LL157 (Kabat); folate conjugated, and the label does not say at one site or both; pAF at HK129 (Kabat); folate conjugated, and the label does not say at one site or both
- IC50, killing of human M2 macrophages with human T-cells, 50 nM folic acid [16]: 0.0012 nM

B3: Fab1-HK129-LL157-5KPEG-Folate (Fab, V domains shown)
VH: B1 VH
VL: B1 VL
modifications: pAF at LL157 (Kabat); 5K PEG-folate conjugated, and the label does not say at one site or both; pAF at HK129 (Kabat); 5K PEG-folate conjugated, and the label does not say at one site or both
- IC50, killing of human M2 macrophages with human T-cells, 50 nM folic acid [16]: 0.112 nM

B4: Fab9-HK129-LL157-BiFolate-Bi5KPEG (Fab, V domains shown)
VH: B1 VH with A49G, I80S
VL: B1 VL with V38F, T60V
modifications: pAF at LL157 (Kabat) conjugated to a bifunctional linker carrying folate and 5K PEG (oxime); pAF at HK129 (Kabat) conjugated to a bifunctional linker carrying folate and 5K PEG (oxime)
- EC50 [17]: 340 nM

B5: Fab10-HK129-LL157-BiFolate-Bi5KPEG (Fab, V domains shown)
VH: B1 VH with N30S
VL: B1 VL with V38F, T60V
modifications: pAF at LL157 (Kabat) conjugated to a bifunctional linker carrying folate and 5K PEG (oxime); pAF at HK129 (Kabat) conjugated to a bifunctional linker carrying folate and 5K PEG (oxime)
- EC50 [17]: 6310 nM

B6: Fab1-HK129-LL157-BiFolate-Bi5KPEG (Fab, V domains shown)
VH: B1 VH
VL: B1 VL
modifications: pAF at LL157 (Kabat) conjugated to a bifunctional linker carrying folate and 5K PEG (oxime); pAF at HK129 (Kabat) conjugated to a bifunctional linker carrying folate and 5K PEG (oxime)
notes: From E. coli; carries two folates and two 5K PEG; also called Fab1-HK129-LL157-Bi5KPEG-BiFolate
- EC50 [5]: 7.5 nM
- fold lower binding affinity (vs the non-pegylated version) [18]: ~5 fold
- Bmax [9]: 15300
- Kd [9]: 3.34 nM
- Bmax [11]: 83100
- Kd [11]: 2.28 nM
- Bmax [13]: 13200
- Kd [13]: 5.01 nM
- EC50 [17]: 5.7 nM

B7: Fab1-HK129-LL157-BiFolate (Fab, V domains shown)
VH: B1 VH
VL: B1 VL
modifications: pAF at LL157 (Kabat) conjugated to folate (oxime); pAF at HK129 (Kabat) conjugated to folate (oxime)
notes: From E. coli; carries two folates
- EC50 [1]: 1.93 nM
- Fold increase binding (vs Fab1-HK129-Folate) [1]: 1.3 fold
- EC50 [19]: 19.8 nM
- Fold increase binding (vs Fab1-HK129-Folate) [19]: 2.2 fold
- EC50 [5]: 2.37 nM
- Bmax [9]: 24600
- Kd [9]: 0.669 nM
- FRα binding affinity [10]: 19.8 nM
- Bmax [11]: 74400
- Kd [11]: 0.85 nM
- Bmax [13]: 19600
- Kd [13]: 1 nM
- Affinity ratio (FRα:CD3) [14]: 10
- CD3 binding affinity [15]: 1.93 nM

B8: Fab14 (Fab, V domains shown)
VH: B1 VH with A49G, I80S, V99A
VL: B1 VL with V38F, T60V
notes: distinct from m37 (Fab14-HK129-Folate); also called Fab14 (vH2.5 / vL2.1), wild type from HEK293
- EC50 (read off the curve) [20]: ~10 nM
- EC50 (read off the curve) [21]: ~5 nM

B9: Fab20-HK129-Folate (Fab, V domains shown)
VH: B1 VH with N35H
VL: B1 VL with K55N
modifications: pAF at HK129 (Kabat) conjugated to folate (oxime)
- binding result [22]: no binding (tested: 1000 nM)

B10: Fab19-HK129-Folate (Fab, V domains shown)
VH: B1 VH with N35H
VL: B1 VL
modifications: pAF at HK129 (Kabat) conjugated to folate (oxime)
- binding result [22]: no binding (tested: 1000 nM)

B11: Fab8 (vH2.2 / vL2.1), wild type from HEK293 (Fab, V domains shown)
VH: B1 VH with A49G
VL: B1 VL with V38F, T60V
notes: HEK293 supernatant
- EC50 (read off the curve) [23]: ~6 nM

B12: Fab1 wildtype (vH1.2+CH1 / vL1.2+CL), humanized anti-CD3 SP34 (Fab, V domains shown)
VH: B1 VH
VL: B1 VL
notes: also called Fab1-WT; vH1.2+vL1.2
- EC50 [2]: 0.93 nM
- EC50 (read off the curve) [23]: ~0.6 nM
- EC50 [3]: 0.75 nM
- EC50 (read off the curve) [24]: ~0.7 nM
- EC50 (read off the curve) [20]: ~2 nM
- EC50 (read off the curve) [21]: ~0.8 nM

B13: Fab7 (vH2.3 / vL2.4), wild type from HEK293 (Fab, V domains shown)
VH: B1 VH with V99A
VL: B1 VL with G59W, T60V
notes: HEK293 supernatant
- EC50 (read off the curve) [23]: ~2 nM
- EC50 (read off the curve) [24]: ~2 nM

B14: humanized anti-CD3 Fab vH1.2 + vL1.0 (Fab, V domains shown)
VH: B1 VH
VL: B1 VL with V38F, G48T, G51Y, G59W
notes: it has no Fab number; HEK293 supernatant; also called antibody with vL1.0 light chain and vH1.2
- binding result [25]: no binding

B15: Fab11-HK129-Folate (Fab, V domains shown)
VH: B1 VH with N30S, A49G, I80S
VL: B1 VL with V38F, G48T, G51Y, G59W
modifications: pAF at HK129 (Kabat) conjugated to folate (oxime)
- binding result [22]: no binding (tested: 1000 nM)

B16: humanized anti-CD3 Fab vH1.0 + vL1.0 (Fab, V domains shown)
VH: B1 VH with A49G, I80S
VL: B1 VL with V38F, G48T, G51Y, G59W
notes: it has no Fab number; HEK293 supernatant; also called antibody with vL1.0 light chain and vH1.0
- binding result [25]: no binding

B17: humanized anti-CD3 Fab vH1.1 + vL1.0 (Fab, V domains shown)
VH: B1 VH with I80S
VL: B1 VL with V38F, G48T, G51Y, G59W
notes: it has no Fab number; HEK293 supernatant; also called antibody with vL1.0 light chain and vH1.1
- binding result [25]: no binding

B18: Fab9 (vH1.0 / vL2.1), wild type from HEK293 (Fab, V domains shown)
VH: B1 VH with A49G, I80S
VL: B1 VL with V38F, T60V
notes: HEK293 supernatant
- EC50 (read off the curve) [24]: ~10 nM
